According to article PMC6826200:

B1: wild-type FICD (amino acid residues 104-445) [human] / itself (parent)
chain: LEARAALNQALEMKRQGKREKAQKLFMHALKMDPDFVDALTEFGIFSEEDKDIIQADYLYTRALTISPYHEKALVNRDRTLPLVEEIDQRYFSIIDSKVKKVMSIPKGNSALRRVMEETYYHHIYHTVAIEGNTLTLSEIRHILETRYAVPGKSLEEQNEVIGMHAAMKYINTTLVSRIGSVTISDVLEIHRRVLGYVDPVEAGRFRTTQVLVGHHIPPHPQDVEKQMQEFVQWLNSEEAMNLHPVEFAALAHYKLVYIHPFIDGNGRTSRLLMNLILMQAGYPPITIRKEQRSDYYHVLEAANEGDVRPFIRFIAKCTETTLDTLLFATTEYSVALPEAQP

Variants of: B1
Test: size-exclusion chromatography (peak elution time vs protein concentration, monomer-dimer association fit)
Settings: with itself; non-oxidised protein; parent: 55 nM

Row | Kd [nM] | Variant
1 | 831 | LEARAALNQALEMKRQGKREKAQKLFMHALKMDPDFVDALTEFGIFSEEDKDIIQADYLYTRALTISPYHEKALVNRDRTLPLVEEIDQRYFSIIDSKVKKVMSIPKGNSALRRVMEETYYHHIYHTVAIEGNTLTLSEIRHILETRYCVPGKSLEEQNEVIGMHAAMKYINTTLVSRIGSVTISDVLEIHRRVLGYVDPVEAGRFRTTQVLVGHHIPPHPQDVEKQMQEFVQWLNSEEAMNLHPVEFAALAHYKLVYIHPFIDGNGRTSRLLMNLILMQAGYPPITIRKEQRSDYYHVLEAANEGDVRPFIRFIAKSTETTLDTLLFATTEYSVALPEAQP [chain 1 A149C C318S]
